Measurements taken from publication PMC8769072, “Proteome‐scale mapping of binding sites in the unstructured regions of the human proteome” (Molecular Systems Biology, 2022).

Experiments:
[1] = target: FITC-labelled phospho-RAF1 255-264 probe peptide (FITC-QRSTpSTPNVH) (human); test: fluorescence polarisation; saturation: protein in serial dilution added to FITC-labelled probe peptide (master mix with 10 nM probe and 2 mM DTT), 50 mM KPO4 or NaPO4 pH 7.5; fitted to a quadratic equation
[2] = target: FITC-labelled NCOR2 1307-1322 probe peptide (FITC-…) (human); test: as above
[3] = target: FITC-labelled Myc 320-328 probe peptide (FITC-…) (human); test: as above
[4] = target: importin subunit alpha‐3 (KPNA4) ARM domain (UniProt O00629); test: FP competition against FITC-NCOR2 1307-1322 probe; settings: reference: unphosphorylated peptide
[5] = target: MDM2 SWIB, cleaved from the His‐GST tag, for affinity measurements (human); test: fluorescence polarisation; competition: unlabelled peptide in serial dilution displaces a FITC-labelled probe peptide from the bait domain (master mix with protein at four times the KD of the probe, 10 nM probe, 2 mM DTT); 50 mM KPO4 or NaPO4 pH 7.5; triplicates; probe for KEAP1 Kelch: FITC-NFE2L1 228-243, other probes in Dataset EV6
[6] = target: KPNA4 ARM (importin subunit alpha-3, armadillo repeat domain) (human) (UniProt O00629); test: fluorescence polarisation; competition: unlabelled peptide in serial dilution against KPNA4 ARM (master mix at four times the KD) with the probe FITC-Myc(320-328), probe of the major pocket; 50 mM KPO4 pH 7.5; Ki calculated from IC50
[7] = target: KPNA4 ARM (importin subunit alpha-3, armadillo repeat domain) (human) (UniProt O00629); test: fluorescence polarisation; competition: unlabelled peptide in serial dilution against KPNA4 ARM (master mix at four times the KD) with the probe FITC-NCOR2(1307-1322), probe of the minor pocket; 50 mM KPO4 pH 7.5; Ki calculated from IC50

Substance: 14-3-3 protein sigma (SFN 14-3-3) (from UniProt P31947 1-248) (domain or fragment)
- Kd [1]: 524 µM

Substance: KPNA4 ARM domain, MBP-tagged (from UniProt O00629 1-521) (domain or fragment)
- Kd [2]: 0.228 µM
- Kd [3]: 0.03 µM

Substance: NCOR1 class III NLS peptide (from UniProt O75376) pS1242 peptide
- binding against the reference ([4]; sites S1242): same

Substance: NCOR1 class III NLS peptide (from UniProt O75376) pS1246 peptide
- binding against the reference ([4]; sites S1246): weaker

Substance: NCOR1 class III NLS peptide (from UniProt O75376) pY1247 peptide
- binding against the reference ([4]; sites Y1247): same

Substance: NUMB_(615–630) peptide, synthetic (from UniProt P49757 615-630)
- Ki [5]: 3.3 µM

Substance: SPRTN 400-416 peptide
- IC50 [6]: 0.26 µM

Substance: ZNF532 1139-1154 peptide
- IC50 [7]: 1.3 µM
